Data: US20140087995A1 (published 2014)
Numbered stars: 1 amine (or outer) side, 2 acyl side, 3 side chain; on linkers, the order of the positions; unused ones are H or OH. Bridge positions count the residues as written; N and C are the ends. Side chains are listed from the residue outwards. Ends that are not written are not given here. * marks the point of attachment. C20 diacid = O=C(O)CCCCCCCCCCCCCCCCCCC(=O)*; γGlu = O=C(O)[C@H](CCC(=O)[*:2])N[*:1]; AEEA = NCCOCCOCC(=O)O

T1: human calcitonin receptor (human, UniProt P30988 25-474)
T1 sequence (looked up): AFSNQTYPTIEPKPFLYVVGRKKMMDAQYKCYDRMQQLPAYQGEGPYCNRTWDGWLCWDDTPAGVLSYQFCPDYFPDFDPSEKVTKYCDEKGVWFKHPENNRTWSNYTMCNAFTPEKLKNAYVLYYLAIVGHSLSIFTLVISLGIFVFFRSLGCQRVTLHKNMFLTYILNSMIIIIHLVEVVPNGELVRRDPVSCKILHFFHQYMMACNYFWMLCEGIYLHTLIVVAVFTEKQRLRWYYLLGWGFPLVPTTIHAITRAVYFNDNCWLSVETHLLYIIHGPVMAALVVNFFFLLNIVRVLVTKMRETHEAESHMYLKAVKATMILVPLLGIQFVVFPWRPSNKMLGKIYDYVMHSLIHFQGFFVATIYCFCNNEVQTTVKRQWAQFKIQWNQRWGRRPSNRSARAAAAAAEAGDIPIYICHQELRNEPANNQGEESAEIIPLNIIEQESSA

T2: rat calcitonin receptor (rat, UniProt P32214 25-516)
T2 construct: whole, on cells; Used as membranes prepared from the transfected cells; also called rCTR; rCT
T2 sequence (looked up): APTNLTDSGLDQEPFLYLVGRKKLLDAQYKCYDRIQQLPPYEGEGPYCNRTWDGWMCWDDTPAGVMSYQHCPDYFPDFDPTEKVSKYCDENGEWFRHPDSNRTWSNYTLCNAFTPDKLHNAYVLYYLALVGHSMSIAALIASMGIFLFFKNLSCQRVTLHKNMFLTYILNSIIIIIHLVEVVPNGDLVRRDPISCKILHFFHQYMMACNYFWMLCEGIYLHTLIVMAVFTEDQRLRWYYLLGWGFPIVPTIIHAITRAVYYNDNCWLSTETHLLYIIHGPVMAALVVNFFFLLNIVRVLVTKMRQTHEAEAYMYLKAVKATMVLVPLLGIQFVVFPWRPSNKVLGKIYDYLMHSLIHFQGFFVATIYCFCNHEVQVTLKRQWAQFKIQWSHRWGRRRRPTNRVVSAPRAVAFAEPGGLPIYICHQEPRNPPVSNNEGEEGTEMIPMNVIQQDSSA

T3: human calcitonin receptor (human, UniProt P30988 25-474)
T3 construct: whole, on cells; Used as membranes prepared from the transfected cells; also called hCTR; hCT
T3 sequence (looked up): T1 sequence (looked up)

T4: rat amylin receptor (rat calcitonin receptor with rat RAMP 3) (rat, UniProt P32214 25-516; Q9JJ73 23-147)
T4 construct: whole, on cells; Used as membranes prepared from the transfected cells; also called rAmylin-R; rAmylin
T4 sequence (looked up) 1: T2 sequence (looked up)
T4 sequence (looked up) 2: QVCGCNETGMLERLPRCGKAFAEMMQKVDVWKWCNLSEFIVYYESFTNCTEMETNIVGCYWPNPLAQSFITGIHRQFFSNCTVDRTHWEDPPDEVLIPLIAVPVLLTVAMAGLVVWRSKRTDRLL

B1: N^ε1-[2-[2-[2-[[(4S)-4-carboxy-4-(19-carboxynonadecanoylamino)butanoyl]amino]ethoxy]ethoxy]acetyl]-[His14,Arg17,Pro21,Pro27,His34]-h-amylin (peptide)
peptide: K([AEEA-γGlu-C20 diacid])CNTATCATQRLAHFLRHSSPNFGAIPSSTNVGHNTY-NH2
modifications: disulfide 2-7; N-terminus assumed
SMILES: CC[C@H](C)[C@H](NC(=O)[C@H](C)NC(=O)CNC(=O)[C@H](Cc1ccccc1)NC(=O)[C@H](CC(N)=O)NC(=O)[C@@H]1CCCN1C(=O)[C@H](CO)NC(=O)[C@H](CO)NC(=O)[C@H](Cc1c[nH]cn1)NC(=O)[C@H](CCCNC(=N)N)NC(=O)[C@H](CC(C)C)NC(=O)[C@H](Cc1ccccc1)NC(=O)[C@H](Cc1c[nH]cn1)NC(=O)[C@H](C)NC(=O)[C@H](CC(C)C)NC(=O)[C@H](CCCNC(=N)N)NC(=O)[C@H](CCC(N)=O)NC(=O)[C@@H](NC(=O)[C@H](C)NC(=O)[C@@H]1CSSC[C@H](NC(=O)[C@@H](N)CCCCNC(=O)COCCOCCNC(=O)CC[C@H](NC(=O)CCCCCCCCCCCCCCCCCCC(=O)O)C(=O)O)C(=O)N[C@@H](CC(N)=O)C(=O)N[C@@H]([C@@H](C)O)C(=O)N[C@@H](C)C(=O)N[C@@H]([C@@H](C)O)C(=O)N1)[C@@H](C)O)C(=O)N1CCC[C@H]1C(=O)N[C@@H](CO)C(=O)N[C@@H](CO)C(=O)N[C@H](C(=O)N[C@@H](CC(N)=O)C(=O)N[C@H](C(=O)NCC(=O)N[C@@H](Cc1c[nH]cn1)C(=O)N[C@@H](CC(N)=O)C(=O)N[C@H](C(=O)N[C@@H](Cc1ccc(O)cc1)C(N)=O)[C@@H](C)O)C(C)C)[C@@H](C)O
notes: Synthetic acylated analogue of human amylin; also called compound 80
B2: N^ε1-[(4S)-4-carboxy-4-[[(4S)-4-carboxy-4-(19-carboxynonadecanoylamino)butanoyl]amino]butanoyl]-[Arg17,Pro21,Pro27,His34]-h-amylin (peptide)
peptide: K([γGlu-γGlu-C20 diacid])CNTATCATQRLANFLRHSSPNFGAIPSSTNVGHNTY-NH2
modifications: disulfide 2-7; N-terminus assumed
SMILES: CC[C@H](C)[C@H](NC(=O)[C@H](C)NC(=O)CNC(=O)[C@H](Cc1ccccc1)NC(=O)[C@H](CC(N)=O)NC(=O)[C@@H]1CCCN1C(=O)[C@H](CO)NC(=O)[C@H](CO)NC(=O)[C@H](Cc1c[nH]cn1)NC(=O)[C@H](CCCNC(=N)N)NC(=O)[C@H](CC(C)C)NC(=O)[C@H](Cc1ccccc1)NC(=O)[C@H](CC(N)=O)NC(=O)[C@H](C)NC(=O)[C@H](CC(C)C)NC(=O)[C@H](CCCNC(=N)N)NC(=O)[C@H](CCC(N)=O)NC(=O)[C@@H](NC(=O)[C@H](C)NC(=O)[C@@H]1CSSC[C@H](NC(=O)[C@@H](N)CCCCNC(=O)CC[C@H](NC(=O)CC[C@H](NC(=O)CCCCCCCCCCCCCCCCCCC(=O)O)C(=O)O)C(=O)O)C(=O)N[C@@H](CC(N)=O)C(=O)N[C@@H]([C@@H](C)O)C(=O)N[C@@H](C)C(=O)N[C@@H]([C@@H](C)O)C(=O)N1)[C@@H](C)O)C(=O)N1CCC[C@H]1C(=O)N[C@@H](CO)C(=O)N[C@@H](CO)C(=O)N[C@H](C(=O)N[C@@H](CC(N)=O)C(=O)N[C@H](C(=O)NCC(=O)N[C@@H](Cc1c[nH]cn1)C(=O)N[C@@H](CC(N)=O)C(=O)N[C@H](C(=O)N[C@@H](Cc1ccc(O)cc1)C(N)=O)[C@@H](C)O)C(C)C)[C@@H](C)O
notes: Synthetic acylated analogue of human amylin; also called compound 86
B3: N^ε1-[(4S)-4-carboxy-4-(19-carboxynonadecanoylamino)butanoyl]-[His14,Arg17,Pro21,Pro27,His34]-h-amylin (peptide)
peptide: K([γGlu-C20 diacid])CNTATCATQRLAHFLRHSSPNFGAIPSSTNVGHNTY-NH2
modifications: disulfide 2-7; N-terminus assumed
SMILES: CC[C@H](C)[C@H](NC(=O)[C@H](C)NC(=O)CNC(=O)[C@H](Cc1ccccc1)NC(=O)[C@H](CC(N)=O)NC(=O)[C@@H]1CCCN1C(=O)[C@H](CO)NC(=O)[C@H](CO)NC(=O)[C@H](Cc1c[nH]cn1)NC(=O)[C@H](CCCNC(=N)N)NC(=O)[C@H](CC(C)C)NC(=O)[C@H](Cc1ccccc1)NC(=O)[C@H](Cc1c[nH]cn1)NC(=O)[C@H](C)NC(=O)[C@H](CC(C)C)NC(=O)[C@H](CCCNC(=N)N)NC(=O)[C@H](CCC(N)=O)NC(=O)[C@@H](NC(=O)[C@H](C)NC(=O)[C@@H]1CSSC[C@H](NC(=O)[C@@H](N)CCCCNC(=O)CC[C@H](NC(=O)CCCCCCCCCCCCCCCCCCC(=O)O)C(=O)O)C(=O)N[C@@H](CC(N)=O)C(=O)N[C@@H]([C@@H](C)O)C(=O)N[C@@H](C)C(=O)N[C@@H]([C@@H](C)O)C(=O)N1)[C@@H](C)O)C(=O)N1CCC[C@H]1C(=O)N[C@@H](CO)C(=O)N[C@@H](CO)C(=O)N[C@H](C(=O)N[C@@H](CC(N)=O)C(=O)N[C@H](C(=O)NCC(=O)N[C@@H](Cc1c[nH]cn1)C(=O)N[C@@H](CC(N)=O)C(=O)N[C@H](C(=O)N[C@@H](Cc1ccc(O)cc1)C(N)=O)[C@@H](C)O)C(C)C)[C@@H](C)O
notes: Synthetic acylated analogue of human amylin; also called compound 81
B4: N^-1-[(4S)-4-carboxy-4-(19-carboxynonadecanoylamino)butanoyl]-Gly[Arg1,Ala14,Arg17,Pro21,Pro27,His34]-h-amylin (peptide)
peptide: {C20 diacid-γGlu}-GRCNTATCATQRLAAFLRHSSPNFGAIPSSTNVGHNTY-NH2
modifications: disulfide 3-8
SMILES: CC[C@H](C)[C@H](NC(=O)[C@H](C)NC(=O)CNC(=O)[C@H](Cc1ccccc1)NC(=O)[C@H](CC(N)=O)NC(=O)[C@@H]1CCCN1C(=O)[C@H](CO)NC(=O)[C@H](CO)NC(=O)[C@H](Cc1c[nH]cn1)NC(=O)[C@H](CCCNC(=N)N)NC(=O)[C@H](CC(C)C)NC(=O)[C@H](Cc1ccccc1)NC(=O)[C@H](C)NC(=O)[C@H](C)NC(=O)[C@H](CC(C)C)NC(=O)[C@H](CCCNC(=N)N)NC(=O)[C@H](CCC(N)=O)NC(=O)[C@@H](NC(=O)[C@H](C)NC(=O)[C@@H]1CSSC[C@H](NC(=O)[C@H](CCCNC(=N)N)NC(=O)CNC(=O)CC[C@H](NC(=O)CCCCCCCCCCCCCCCCCCC(=O)O)C(=O)O)C(=O)N[C@@H](CC(N)=O)C(=O)N[C@@H]([C@@H](C)O)C(=O)N[C@@H](C)C(=O)N[C@@H]([C@@H](C)O)C(=O)N1)[C@@H](C)O)C(=O)N1CCC[C@H]1C(=O)N[C@@H](CO)C(=O)N[C@@H](CO)C(=O)N[C@H](C(=O)N[C@@H](CC(N)=O)C(=O)N[C@H](C(=O)NCC(=O)N[C@@H](Cc1c[nH]cn1)C(=O)N[C@@H](CC(N)=O)C(=O)N[C@H](C(=O)N[C@@H](Cc1ccc(O)cc1)C(N)=O)[C@@H](C)O)C(C)C)[C@@H](C)O
notes: Analogue of human amylin extended by Gly at the N-terminus; disulfide and C-terminal amide as told for h-amylin
B5: N{-1}-[(4S)-4-carboxy-4-(19-carboxynonadecanoylamino)butanoyl]-Gly[Arg1,His14,Arg17,Pro21,Pro27]-h-amylin (peptide)
peptide: {C20 diacid-γGlu}-GRCNTATCATQRLAHFLRHSSPNFGAIPSSTNVGSNTY-NH2
modifications: disulfide 3-8
SMILES: CC[C@H](C)[C@H](NC(=O)[C@H](C)NC(=O)CNC(=O)[C@H](Cc1ccccc1)NC(=O)[C@H](CC(N)=O)NC(=O)[C@@H]1CCCN1C(=O)[C@H](CO)NC(=O)[C@H](CO)NC(=O)[C@H](Cc1c[nH]cn1)NC(=O)[C@H](CCCNC(=N)N)NC(=O)[C@H](CC(C)C)NC(=O)[C@H](Cc1ccccc1)NC(=O)[C@H](Cc1c[nH]cn1)NC(=O)[C@H](C)NC(=O)[C@H](CC(C)C)NC(=O)[C@H](CCCNC(=N)N)NC(=O)[C@H](CCC(N)=O)NC(=O)[C@@H](NC(=O)[C@H](C)NC(=O)[C@@H]1CSSC[C@H](NC(=O)[C@H](CCCNC(=N)N)NC(=O)CNC(=O)CC[C@H](NC(=O)CCCCCCCCCCCCCCCCCCC(=O)O)C(=O)O)C(=O)N[C@@H](CC(N)=O)C(=O)N[C@@H]([C@@H](C)O)C(=O)N[C@@H](C)C(=O)N[C@@H]([C@@H](C)O)C(=O)N1)[C@@H](C)O)C(=O)N1CCC[C@H]1C(=O)N[C@@H](CO)C(=O)N[C@@H](CO)C(=O)N[C@H](C(=O)N[C@@H](CC(N)=O)C(=O)N[C@H](C(=O)NCC(=O)N[C@@H](CO)C(=O)N[C@@H](CC(N)=O)C(=O)N[C@H](C(=O)N[C@@H](Cc1ccc(O)cc1)C(N)=O)[C@@H](C)O)C(C)C)[C@@H](C)O
notes: Analogue of human amylin extended by Gly at the N-terminus; disulfide and C-terminal amide as told for h-amylin; also called compound 99

How the values were obtained:
[1] = molecular target: T1, human calcitonin receptor; test: cell-based or functional assay
[2] = molecular target: T2, rat calcitonin receptor; test: SPA competition with 125I-calcitonin, membranes with rat calcitonin receptor (Assay VIII)
[3] = molecular target: T2, rat calcitonin receptor; test: ratio of binding IC50 at rat calcitonin receptor to IC50 at rat amylin receptor (reference)
[4] = molecular target: T3, human calcitonin receptor; test: ratio of binding IC50 at human calcitonin receptor to IC50 at human amylin receptor (reference)
Procedure, shortened: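 Competition binding by SPA with cell membranes (35 ng/μL) and SPA beads in 50 mM Hepes pH 7.4 with 1 mM CaCl2, 5 mM MgCl2, 0.1% OA and 0.02% Tween20. Incubated 120 min at 25 °C with shaking, then counted.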

[5] = molecular target: T4, rat amylin receptor (rat calcitonin …); test: SPA competition with 125I-rat amylin, membranes with rat calcitonin receptor + rat RAMP3 (Assay VI)

Row | Binder | Ratio hCT/hAmylin funct. [1] | hCTR funct. EC50 (pM) [1] [pM] | IC50 [2] [µM] | Ratio rCT/rAmylin binding [3] | Ratio hCT/hAmylin binding [4] | IC50 [5] [µM]
1 | B1 | 15.4 |  |  |  |  | 
2 | B2 |  | 19200 |  |  |  | 
3 | B3 | 13.3 |  |  |  |  | 
4 | B4 |  |  | 0.492 | 60.9 | 68.6 | 0.00807
5 | B5 |  |  | 0.216 | 79.8 | 100 | 0.0027
